Legend:
[1] = Solubility test in a phosphate buffer; type: physicochemical
From the text: The solubilities of the compounds of formula
in a phosphate buffer have been compared.

FAP = target: T1, FAP (Homo sapiens, UniProt Q12884); assay: Assay for cleavage of MNA substrates by FAP; type: biochemical; conditions: 1 ng FAP enzyme (extract of FAP-transfected 293 cells), 20 μl 2.5 mM substrate, 1 hour at room temperature, fluorescence Ex 355/Em 405 nm, FAP-negative 293 control subtracted
T1 construct: expressed in transfected cells; host or cells: 293 cells stably transfected with FAP; cell extract
T1 sequence (Q12884 1-760): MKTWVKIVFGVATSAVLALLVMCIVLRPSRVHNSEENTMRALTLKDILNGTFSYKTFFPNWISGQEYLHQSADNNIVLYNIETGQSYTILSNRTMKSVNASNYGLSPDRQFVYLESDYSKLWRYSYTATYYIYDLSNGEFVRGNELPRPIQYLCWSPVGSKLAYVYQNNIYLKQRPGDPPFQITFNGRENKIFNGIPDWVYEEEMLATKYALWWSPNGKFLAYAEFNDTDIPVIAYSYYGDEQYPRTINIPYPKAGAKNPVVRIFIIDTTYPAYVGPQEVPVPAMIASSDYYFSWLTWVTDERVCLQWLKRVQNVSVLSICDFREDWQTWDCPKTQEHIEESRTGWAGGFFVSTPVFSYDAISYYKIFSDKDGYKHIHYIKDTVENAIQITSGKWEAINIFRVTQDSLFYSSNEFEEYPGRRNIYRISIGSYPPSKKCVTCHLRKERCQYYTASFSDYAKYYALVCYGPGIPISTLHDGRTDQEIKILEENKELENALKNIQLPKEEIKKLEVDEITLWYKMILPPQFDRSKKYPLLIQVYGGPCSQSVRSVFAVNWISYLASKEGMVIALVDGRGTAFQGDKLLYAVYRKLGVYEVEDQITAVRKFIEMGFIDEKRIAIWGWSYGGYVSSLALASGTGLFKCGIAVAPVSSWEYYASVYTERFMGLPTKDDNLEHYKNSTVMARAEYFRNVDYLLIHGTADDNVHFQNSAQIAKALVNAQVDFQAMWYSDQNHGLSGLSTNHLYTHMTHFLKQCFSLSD
Experimental: Assay for Cleavage of MNA Substrates by FAP: Buffer A: 100 mM Tris HCl pH 7.8, 100 mM NaCl Cell extract from 293 cells stably transfected with FAP prepared as described (see Park, et al., Fibroblast Activation Protein, a Dual Specificity Serine Protease expressed in human tumor stromal fibroblasts. (1999) J. Biol. Chem. 36505-12.). A similar extract was also prepared from parental 293 control cells without FAP. The FAP concentration in the FAP-transfected cell extract was estimated by immunoassay and 1 ng enzyme (diluted in buffer A) was used per assay. FAP-negative 293 control cell extract was used at the same dilution (also in buffer A) as a negative control. Substrate was initially dissolved in dimethylformamide at a concentration of 200 mM and diluted in buffer A to a final concentration of 2.5 mM. A few substrates were not soluble at this concentration and had to be diluted further. Assay Conditions: 10 μl 10% DMSO in buffer A 70 μl diluted FAP cell extract containing 1 ng FAP enzyme (OR control 293 cell extract without FAP) 20 μl 2.5 mM substrate Mix, incubate at room temperature for 1 hour, and measure fluorescence in Fluorostar fluorimeter at the following wavelengths: MNA conjugates: Excitation: 355 nm, Emission: 405 nm. The fluorescence measured in the samples treated with control 293 control cell extracts without FAP is subtracted from the values measured in the samples treated with 1 ng FAP enzyme.

Compound	solubility [1]	Cleavage (FAP)
COc1cccc2c1C(=O)c1c(O)c3c(c(O)c1C2=O)C[C@@](O)(C(=O)CO)C[C@@H]3OC1CC(NC(=O)[C@@H]2CCCN2C(=O)CNC(=O)[C@H](C)NC(=O)[C@@H]2CCCN2C(=O)Cc2ccccc2)C(O)C(C)O1 (some centres unmarked) [B, reference compound]	< 2000 µg/mL	–
[2-(2-Carboxymethyl-phenyl)-acetyl]-Pro-Ala-Gly-Pro-MNA (PAGP; N-terminal 2-carboxymethylphenylacetyl; C-terminal MNA; printed: Pro-Ala-Gly-Pro-)	–	0.94 µM
[2-(3-Carboxymethyl-phenyl)-acetyl]-N-MeIle-Ala-Gly-Pro-MNA (IAGP; N-terminal 3-carboxymethylphenylacetyl, N-methyl; C-terminal MNA; printed: Ile-Ala-Gly-Pro-)	–	15.36 µM
[2-(3-Carboxymethyl-phenyl)-acetyl]-N-MeLeu-Ala-Gly-Pro-MNA (LAGP; N-terminal 3-carboxymethylphenylacetyl, N-methyl; C-terminal MNA; printed: Leu-Ala-Gly-Pro-)	–	12.00 µM
[2-(3-Carboxymethyl-phenyl)-acetyl]-N-MeVal-Ala-Gly-Pro-MNA (VAGP; N-terminal 3-carboxymethylphenylacetyl, N-methyl; C-terminal MNA; printed: Val-Ala-Gly-Pro-)	–	9.52 µM
[2-(3-Carboxymethyl-phenyl)-acetyl]-Pro-Ala-Gly-Pro-MNA (PAGP; N-terminal 3-carboxymethylphenylacetyl; C-terminal MNA; printed: Pro-Ala-Gly-Pro-)	–	2.80 µM
[2-(4-Carboxymethyl-phenyl)-acetyl]-Aze-Ala-Gly-Pro-MNA	–	9.54 µM
[2-(4-Carboxymethyl-phenyl)-acetyl]-N-MeIle-Ala-Gly-Pro-MNA (IAGP; N-terminal 4-carboxymethylphenylacetyl, N-methyl; C-terminal MNA; printed: Ile-Ala-Gly-Pro-)	–	16.36 µM
[2-(4-Carboxymethyl-phenyl)-acetyl]-N-MeLeu-Ala-Gly-Pro-MNA (LAGP; N-terminal 4-carboxymethylphenylacetyl, N-methyl; C-terminal MNA; printed: Leu-Ala-Gly-Pro-)	–	13.97 µM
[2-(4-Carboxymethyl-phenyl)-acetyl]-N-MeVal-Ala-Gly-Pro-MNA (VAGP; N-terminal 4-carboxymethylphenylacetyl, N-methyl; C-terminal MNA; printed: Val-Ala-Gly-Pro-)	–	13.39 µM
[2-(4-Carboxymethyl-phenyl)-acetyl]-Pro-Ala-Gly-Pro-MNA (PAGP; N-terminal 4-carboxymethylphenylacetyl; C-terminal MNA; printed: Pro-Ala-Gly-Pro-)	–	7.25 µM
